Test results as given in US6930088B2, “Conformationally constrained backbone cyclized somatostatin analogs” (Peptor Ltd., priority 1998, dated 2005).
Values belong to the molecule of their own block, whether it stands above or below them. *1 amine or outer side, *2 acyl side, *3 side chain or, on linkers, in order; H or OH if unused. Bridges are numbered along the chain shown (N, C = ends). Where no end group is shown, it is not given here. [ ]: non-standard residue; d: D form. N(2-aminoethyl)Phe = O=C([C@H](Cc1ccccc1)N(CCN[*:3])[*:1])[*:2]; N(CH2CH2CO)Gly = O=C(CN(CCC(=O)[*:3])[*:1])[*:2]; 2Nal = N[C@@H](Cc1ccc2ccccc2c1)C(=O)O; d2Nal = N[C@H](Cc1ccc2ccccc2c1)C(=O)O; Phe(C1) = not defined here; Phe(C2) = not defined here; Phe(C3) = not defined here

Tests used:
[1] = system: somatostatin receptors (SSTR-1, 2, 3, 4 or 5); test: Somatostatin receptor subtype selectivity of binding; parameters: species or system human; conditions: in words
Method: The somatostatin analogs were tested for their potency in inhibition of the binding of ^125I-Tyr^11-SRIF (based on the method described by Raynor et. al., Molecular Pharmacology, 1993, 43, 838-844) to membrane preparations expressing the transmembranal somatostatin receptors (SSTR-1, 2, 3, 4 or 5). The receptor preparations used for these tests were either from the cloned human receptors selectively and stably expressed in Chinese Hamster Ovary (CHO) cells or from cell lines naturally expressing the SSTRs. Typically, cell membranes were homogenated in Tris buffer in the presence of protease inhibitors and incubated for 30-40 minutes with ^125I-Tyr^11-SRIF with different concentrations of the tested sample. The binding reactions were filtered, the filters were washed and the bound radioactivity was counted in gamma counter. Non specific binding was defined as the radioactivity remaining bound in the presence of 1 μM unlabeled SRIF-14.
In order to validate positive signals of the binding tests, and to eliminate non-specific signals, samples of irrelevant peptides, such as GnRH, that were synthesized and handled using the same procedures, were tested in the same assays as negative control samples. These samples had no binding activity in any of the assays. Results are shown below in Tables 5 and 6 and FIG. 1.

[2] = target: T1, cloned human somatostatin receptor 3 (human, UniProt P32745 1-418); test: 125I-Tyr11-SRIF displacement, membranes, cloned human SST-R3
T1 construct: whole, on cells; Tested as cell membrane preparations; also called SSTR-3; SSTR3
T1 sequence (P32745 whole entry): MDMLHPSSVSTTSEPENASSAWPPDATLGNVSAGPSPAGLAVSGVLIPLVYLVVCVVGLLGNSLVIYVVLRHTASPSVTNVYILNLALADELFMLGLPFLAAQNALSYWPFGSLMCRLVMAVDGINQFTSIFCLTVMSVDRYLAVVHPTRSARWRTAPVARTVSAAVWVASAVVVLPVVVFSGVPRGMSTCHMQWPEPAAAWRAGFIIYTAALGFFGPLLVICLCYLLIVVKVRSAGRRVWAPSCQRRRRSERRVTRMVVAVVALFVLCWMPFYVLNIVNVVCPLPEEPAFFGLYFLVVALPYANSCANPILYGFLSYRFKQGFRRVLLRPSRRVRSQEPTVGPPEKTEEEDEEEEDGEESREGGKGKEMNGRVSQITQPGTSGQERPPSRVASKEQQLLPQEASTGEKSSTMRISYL
Description: (§1) The receptor preparations used for these tests were either from the cloned human receptors selectively and stably expressed in Chinese Hamster Ovary (CHO) cells or from cell lines naturally expressing the SSTRs. […] The binding reactions were filtered, the filters were washed and the bound radioactivity was counted in gamma counter.

[3] = target: T2, cloned human somatostatin receptor 2 (human, UniProt P30874 1-369); test: inhibition of SRIF binding, cloned human SSTR-2; head says nM, values evidently molar
T2 construct: whole, on cells; Tested as cell membrane preparations; also called SSTR-2; SSTR2
T2 sequence (P30874 whole entry): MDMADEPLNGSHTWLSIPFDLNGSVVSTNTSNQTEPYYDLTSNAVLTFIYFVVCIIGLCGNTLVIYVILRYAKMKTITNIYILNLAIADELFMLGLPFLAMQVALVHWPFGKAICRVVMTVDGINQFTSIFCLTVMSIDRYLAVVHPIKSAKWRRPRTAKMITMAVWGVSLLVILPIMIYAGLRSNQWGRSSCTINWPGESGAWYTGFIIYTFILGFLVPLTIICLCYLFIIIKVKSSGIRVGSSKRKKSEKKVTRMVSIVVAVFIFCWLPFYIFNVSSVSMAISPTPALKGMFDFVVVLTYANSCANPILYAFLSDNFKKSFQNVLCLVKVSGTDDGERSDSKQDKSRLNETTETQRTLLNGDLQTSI
Description: as §1

[4] = target: T1, cloned human somatostatin receptor 3; test: inhibition of SRIF binding, cloned human SSTR-3; head says nM, values evidently molar
Description: as §1

[5] = target: T3, cloned human somatostatin receptor 5 (human, UniProt P35346 1-364); test: inhibition of SRIF binding, cloned human SSTR-5; head says nM, values evidently molar
T3 construct: whole, on cells; Tested as cell membrane preparations; also called SSTR-5; SSTR5
T3 sequence (P35346 whole entry): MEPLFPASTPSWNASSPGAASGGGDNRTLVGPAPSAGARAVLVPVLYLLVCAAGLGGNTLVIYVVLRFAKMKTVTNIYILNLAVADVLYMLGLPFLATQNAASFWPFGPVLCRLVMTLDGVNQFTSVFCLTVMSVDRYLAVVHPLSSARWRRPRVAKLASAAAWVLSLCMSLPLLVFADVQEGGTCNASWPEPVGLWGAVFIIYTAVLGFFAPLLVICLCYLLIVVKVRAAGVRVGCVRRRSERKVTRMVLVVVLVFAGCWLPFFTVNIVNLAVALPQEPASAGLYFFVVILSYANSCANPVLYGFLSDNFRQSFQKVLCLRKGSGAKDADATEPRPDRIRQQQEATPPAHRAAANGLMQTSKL
Description: as §1

[6] = target: T4, cloned human somatostatin receptor 4 (human, UniProt P31391 1-388); test: 125I-Tyr11-SRIF displacement, cloned human SSTR-R4
T4 construct: whole, on cells; Tested as cell membrane preparations; also called SSTR-4; SSTR-R4
T4 sequence (P31391 whole entry): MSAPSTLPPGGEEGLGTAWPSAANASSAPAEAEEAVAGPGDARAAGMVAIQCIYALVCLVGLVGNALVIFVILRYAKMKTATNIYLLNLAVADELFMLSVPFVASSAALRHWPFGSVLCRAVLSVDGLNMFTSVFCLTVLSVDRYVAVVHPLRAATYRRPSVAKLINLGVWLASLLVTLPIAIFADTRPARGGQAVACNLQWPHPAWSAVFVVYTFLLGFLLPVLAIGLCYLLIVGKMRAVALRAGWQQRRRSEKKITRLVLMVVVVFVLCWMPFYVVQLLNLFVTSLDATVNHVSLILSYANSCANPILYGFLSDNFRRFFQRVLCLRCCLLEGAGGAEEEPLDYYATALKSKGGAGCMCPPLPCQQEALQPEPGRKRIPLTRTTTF

Molecule: Phe(N2)-Tyr-(D)2Nal-Lys-Val-Gly(C2)-Thr-X ([N(2-aminoethyl)Phe]Y[d2Nal]KV[N(CH2CH2CO)Gly]T; lactam 1-6; not fully specified; printed as Phe(N2)-Tyr-(D)2Nal-Lys-Val-Gly(C2)-Thr-X) [PTR 3209]
somatostatin receptor subtype selectivity [1]: selective for the type 1 receptor

Molecule: Phe(N2)-Tyr-(D)Trp-Lys-Val-Gly(C2)-2Nal-X ([N(2-aminoethyl)Phe]Y[dW]KV[N(CH2CH2CO)Gly][2Nal]; lactam 1-6; not fully specified) [PTR 3183]
somatostatin receptor subtype selectivity [1]: selective for the type 5 somatostatin receptor

Molecule: Phe(N2)-Tyr-(D)Trp-Lys-Val-Val-Gly(C2)-X ([N(2-aminoethyl)Phe]Y[dW]KVV[N(CH2CH2CO)Gly]; lactam 1-7; not fully specified) [PTR 3185]
somatostatin receptor subtype selectivity [1]: selective for the type 5 somatostatin receptor

B1: PTR 3113 (peptide)
peptide: [Phe(C1)]FF[dW]K[N(2-aminoethyl)Phe]
modifications: lactam 1-6; reading uncertain
notes: Backbone cyclized hexapeptide somatostatin analog
percent inhibition of SRIF-14 binding at 10^-6M [2]: 94% | percent inhibition of SRIF-14 binding at 10^-7M [2]: 65% | percent inhibition of SRIF-14 binding at 10^-8M [2]: 16%

Next, values leading:

IC50 [3]: 100 nM | IC50 [4]: 10 nM | IC50 [5]: 1 nM
Molecule: [N(2-aminoethyl)Phe]Y[dW]KS[2Nal][N(CH2CH2CO)Gly] (lactam 1-7; not fully specified, Backbone cyclized heptapeptide) [PTR 3201]

percent inhibition of SRIF-14 binding at 10^-6M [2]: 87% | percent inhibition of SRIF-14 binding at 10^-7M [2]: 40% | percent inhibition of SRIF-14 binding at 10^-8M [2]: 12%
Molecule: FFF[dW][dK][Phe(C2)] (lactam N-6; reading uncertain, Backbone-to-end cyclized hexapeptide) [PTR 3171]

percent inhibition of SRIF-14 binding at 10^-6 M [6]: 5% | percent inhibition of SRIF-14 binding at 10^-7M [6]: 5% | percent inhibition of SRIF-14 binding at 10^-8M [6]: 0% | percent inhibition of SRIF-14 binding at 10^-9 M [6]: 0% | percent inhibition of SRIF-14 binding at 10^-10 M [6]: 0% | percent inhibition of SRIF-14 binding at 10^-11 M [6]: 0% | IC50 [3]: 1 nM | IC50 [4]: 100 nM | IC50 [5]: 1 nM
B2: PTR 3173 (peptide)
peptide: XFWWKTFG
modifications: GABA at 1 (written X); (D)Trp at 4; Gly(C3) building unit at 8 bridged by an amide to the N terminus (GABA); C-terminal amide
notes: Backbone-to-end cyclized octapeptide

IC50 [3]: 1 nM
Molecule: [Phe(C3)]CF[dW]KTC[Phe(N3)]-NH2 (lactam 1-8; disulfide 2-7; reading uncertain, Bicyclic analog) [PTR 3205]

IC50 [3]: 100 nM | IC50 [4]: 10 nM | IC50 [5]: 10 nM
Molecule: [N(2-aminoethyl)Phe]F[dW]KT[2Nal][N(CH2CH2CO)Gly] (lactam 1-7; not fully specified, Backbone cyclized heptapeptide) [PTR 3203]
